Consider six molecules from patent US20260001928A1 (CORTERIA PHARMACEUTICALS, priority 2022, published 2026).

Usually EC50 stands for the concentration giving half of the maximal effect.

*1 amine or outer side, *2 acyl side, *3 side chain or, on linkers, in order; H or OH if unused. Where no end group is shown, it is not given here. Side-chain parts run from the residue outwards. [ ]: non-standard residue; d: D form. The star is where a group is joined. C16 diacid = O=C(O)CCCCCCCCCCCCCCC(=O)*; γGlu = O=C(O)[C@H](CCC(=O)[*:2])N[*:1]; C14 diacid = O=C(O)CCCCCCCCCCCCC(=O)*; NMeI = CC[C@H](C)[C@H](NC)C(=O)O; Api = NC1(C(=O)O)CCNCC1; AEEA = NCCOCCOCC(=O)O; Aib = CC(C)(N)C(=O)O Some results are limits rather than exact numbers.

The target of experiment [1] is human corticotropin-releasing factor 2a (CRF2a receptor) (human), Q13324. The experiment in a line: cell-based or functional assay.
In a further experiment the target is T1, CRF1R receptor (UniProt P34998 24-415, limits assumed).
T1 sequence (looked up): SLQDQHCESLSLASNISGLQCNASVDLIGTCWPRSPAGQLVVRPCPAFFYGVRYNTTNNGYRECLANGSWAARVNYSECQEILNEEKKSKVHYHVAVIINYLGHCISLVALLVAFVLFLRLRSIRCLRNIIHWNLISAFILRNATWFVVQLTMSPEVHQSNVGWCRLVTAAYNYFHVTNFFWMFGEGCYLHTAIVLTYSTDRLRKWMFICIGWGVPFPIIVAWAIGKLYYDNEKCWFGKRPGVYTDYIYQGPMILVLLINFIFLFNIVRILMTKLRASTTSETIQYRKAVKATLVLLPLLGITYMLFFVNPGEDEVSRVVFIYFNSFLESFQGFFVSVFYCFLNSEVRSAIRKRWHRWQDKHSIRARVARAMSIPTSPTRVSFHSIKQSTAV
The experiment in a line: cell-based or functional assay.

Sequence of human corticotropin-releasing factor 2a (CRF2a receptor) (human), Q13324 (Q13324 20-411): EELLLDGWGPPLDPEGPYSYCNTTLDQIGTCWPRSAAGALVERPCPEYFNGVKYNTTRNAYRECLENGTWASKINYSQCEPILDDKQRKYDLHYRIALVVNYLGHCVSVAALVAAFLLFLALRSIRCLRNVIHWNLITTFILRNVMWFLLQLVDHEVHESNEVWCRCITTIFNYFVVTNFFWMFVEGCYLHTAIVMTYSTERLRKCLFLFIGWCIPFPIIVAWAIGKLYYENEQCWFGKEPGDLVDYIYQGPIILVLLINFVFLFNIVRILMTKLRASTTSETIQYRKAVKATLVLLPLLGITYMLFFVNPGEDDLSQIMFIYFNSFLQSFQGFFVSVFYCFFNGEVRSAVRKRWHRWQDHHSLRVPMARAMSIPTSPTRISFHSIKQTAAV

B1: SEQ ID NO 172 (peptide)
peptide: Ac-IVLSLD[dV]PIKLK([AEEA-AEEA-γGlu-C14 diacid])KILLEQEKQKKQREQAETN[Api]QILAQV-NH2
SMILES: CC[C@H](C)[C@H](NC(C)=O)C(=O)N[C@H](C(=O)N[C@@H](CC(C)C)C(=O)N[C@@H](CO)C(=O)N[C@@H](CC(C)C)C(=O)N[C@@H](CC(=O)O)C(=O)N[C@@H](C(=O)N1CCC[C@H]1C(=O)N[C@H](C(=O)N[C@@H](CCCCN)C(=O)N[C@@H](CC(C)C)C(=O)N[C@@H](CCCCNC(=O)COCCOCCNC(=O)COCCOCCNC(=O)CC[C@H](NC(=O)CCCCCCCCCCCCC(=O)O)C(=O)O)C(=O)N[C@@H](CCCCN)C(=O)N[C@H](C(=O)N[C@@H](CC(C)C)C(=O)N[C@@H](CC(C)C)C(=O)N[C@@H](CCC(=O)O)C(=O)N[C@@H](CCC(N)=O)C(=O)N[C@@H](CCC(=O)O)C(=O)N[C@@H](CCCCN)C(=O)N[C@@H](CCC(N)=O)C(=O)N[C@@H](CCCCN)C(=O)N[C@@H](CCCCN)C(=O)N[C@@H](CCC(N)=O)C(=O)N[C@@H](CCCNC(=N)N)C(=O)N[C@@H](CCC(=O)O)C(=O)N[C@@H](CCC(N)=O)C(=O)N[C@@H](C)C(=O)N[C@@H](CCC(=O)O)C(=O)N[C@H](C(=O)N[C@@H](CC(N)=O)C(=O)NC1(C(=O)N[C@@H](CCC(N)=O)C(=O)N[C@H](C(=O)N[C@@H](CC(C)C)C(=O)N[C@@H](C)C(=O)N[C@@H](CCC(N)=O)C(=O)N[C@H](C(N)=O)C(C)C)[C@@H](C)CC)CCNCC1)[C@@H](C)O)[C@@H](C)CC)[C@@H](C)CC)C(C)C)C(C)C
B1 came in with an EC50 [nM] (cAMP) in experiment [1] of 16.1 nM. Also, in the experiment with CRF1R receptor, the “Emax (% I)” value is -6%.

B2: SEQ ID NO 173 (peptide)
peptide: Ac-IVLSLD[dV]PIKLK([AEEA-AEEA-γGlu-C14 diacid])KILLEQEKQK[Aib]QREQAETN[Api]QILAQV-NH2
SMILES: CC[C@H](C)[C@H](NC(C)=O)C(=O)N[C@H](C(=O)N[C@@H](CC(C)C)C(=O)N[C@@H](CO)C(=O)N[C@@H](CC(C)C)C(=O)N[C@@H](CC(=O)O)C(=O)N[C@@H](C(=O)N1CCC[C@H]1C(=O)N[C@H](C(=O)N[C@@H](CCCCN)C(=O)N[C@@H](CC(C)C)C(=O)N[C@@H](CCCCNC(=O)COCCOCCNC(=O)COCCOCCNC(=O)CC[C@H](NC(=O)CCCCCCCCCCCCC(=O)O)C(=O)O)C(=O)N[C@@H](CCCCN)C(=O)N[C@H](C(=O)N[C@@H](CC(C)C)C(=O)N[C@@H](CC(C)C)C(=O)N[C@@H](CCC(=O)O)C(=O)N[C@@H](CCC(N)=O)C(=O)N[C@@H](CCC(=O)O)C(=O)N[C@@H](CCCCN)C(=O)N[C@@H](CCC(N)=O)C(=O)N[C@@H](CCCCN)C(=O)NC(C)(C)C(=O)N[C@@H](CCC(N)=O)C(=O)N[C@@H](CCCNC(=N)N)C(=O)N[C@@H](CCC(=O)O)C(=O)N[C@@H](CCC(N)=O)C(=O)N[C@@H](C)C(=O)N[C@@H](CCC(=O)O)C(=O)N[C@H](C(=O)N[C@@H](CC(N)=O)C(=O)NC1(C(=O)N[C@@H](CCC(N)=O)C(=O)N[C@H](C(=O)N[C@@H](CC(C)C)C(=O)N[C@@H](C)C(=O)N[C@@H](CCC(N)=O)C(=O)N[C@H](C(N)=O)C(C)C)[C@@H](C)CC)CCNCC1)[C@@H](C)O)[C@@H](C)CC)[C@@H](C)CC)C(C)C)C(C)C
Molecule B2 displayed an EC50 [nM] (cAMP) in experiment [1] of 28.1 nM. Besides, in the experiment with CRF1R receptor, the “Emax (% I)” value was -1%.

B3: SEQ ID NO 176 (peptide)
peptide: [NMeI]VLSLD[dV]PIKLK([γGlu-C14 diacid])KILLEQEKQKAQREQAETN[Aib]QILAQV-NH2
modifications: N-terminus assumed
SMILES: CC[C@H](C)[C@H](NC)C(=O)N[C@H](C(=O)N[C@@H](CC(C)C)C(=O)N[C@@H](CO)C(=O)N[C@@H](CC(C)C)C(=O)N[C@@H](CC(=O)O)C(=O)N[C@@H](C(=O)N1CCC[C@H]1C(=O)N[C@H](C(=O)N[C@@H](CCCCN)C(=O)N[C@@H](CC(C)C)C(=O)N[C@@H](CCCCNC(=O)CC[C@H](NC(=O)CCCCCCCCCCCCC(=O)O)C(=O)O)C(=O)N[C@@H](CCCCN)C(=O)N[C@H](C(=O)N[C@@H](CC(C)C)C(=O)N[C@@H](CC(C)C)C(=O)N[C@@H](CCC(=O)O)C(=O)N[C@@H](CCC(N)=O)C(=O)N[C@@H](CCC(=O)O)C(=O)N[C@@H](CCCCN)C(=O)N[C@@H](CCC(N)=O)C(=O)N[C@@H](CCCCN)C(=O)N[C@@H](C)C(=O)N[C@@H](CCC(N)=O)C(=O)N[C@@H](CCCNC(=N)N)C(=O)N[C@@H](CCC(=O)O)C(=O)N[C@@H](CCC(N)=O)C(=O)N[C@@H](C)C(=O)N[C@@H](CCC(=O)O)C(=O)N[C@H](C(=O)N[C@@H](CC(N)=O)C(=O)NC(C)(C)C(=O)N[C@@H](CCC(N)=O)C(=O)N[C@H](C(=O)N[C@@H](CC(C)C)C(=O)N[C@@H](C)C(=O)N[C@@H](CCC(N)=O)C(=O)N[C@H](C(N)=O)C(C)C)[C@@H](C)CC)[C@@H](C)O)[C@@H](C)CC)[C@@H](C)CC)C(C)C)C(C)C
In the case of B3, in experiment [1], the EC50 [nM] (cAMP) was 0.99 nM. The “Emax (% I)” value with CRF1R receptor came out at 8%.

B4: SEQ ID NO 175 (peptide)
peptide: Ac-IVLSLD[dV]PIKLK([AEEA-AEEA-γGlu-γGlu-C14 diacid])KILLEQEKQKKQREQAETN[Api]QILAQV-NH2
SMILES: CC[C@H](C)[C@H](NC(C)=O)C(=O)N[C@H](C(=O)N[C@@H](CC(C)C)C(=O)N[C@@H](CO)C(=O)N[C@@H](CC(C)C)C(=O)N[C@@H](CC(=O)O)C(=O)N[C@@H](C(=O)N1CCC[C@H]1C(=O)N[C@H](C(=O)N[C@@H](CCCCN)C(=O)N[C@@H](CC(C)C)C(=O)N[C@@H](CCCCNC(=O)COCCOCCNC(=O)COCCOCCNC(=O)CC[C@H](NC(=O)CC[C@H](NC(=O)CCCCCCCCCCCCC(=O)O)C(=O)O)C(=O)O)C(=O)N[C@@H](CCCCN)C(=O)N[C@H](C(=O)N[C@@H](CC(C)C)C(=O)N[C@@H](CC(C)C)C(=O)N[C@@H](CCC(=O)O)C(=O)N[C@@H](CCC(N)=O)C(=O)N[C@@H](CCC(=O)O)C(=O)N[C@@H](CCCCN)C(=O)N[C@@H](CCC(N)=O)C(=O)N[C@@H](CCCCN)C(=O)N[C@@H](CCCCN)C(=O)N[C@@H](CCC(N)=O)C(=O)N[C@@H](CCCNC(=N)N)C(=O)N[C@@H](CCC(=O)O)C(=O)N[C@@H](CCC(N)=O)C(=O)N[C@@H](C)C(=O)N[C@@H](CCC(=O)O)C(=O)N[C@H](C(=O)N[C@@H](CC(N)=O)C(=O)NC1(C(=O)N[C@@H](CCC(N)=O)C(=O)N[C@H](C(=O)N[C@@H](CC(C)C)C(=O)N[C@@H](C)C(=O)N[C@@H](CCC(N)=O)C(=O)N[C@H](C(N)=O)C(C)C)[C@@H](C)CC)CCNCC1)[C@@H](C)O)[C@@H](C)CC)[C@@H](C)CC)C(C)C)C(C)C
For B4, the EC50 [nM] (cAMP) in experiment [1] turned out to be 18.9 nM. For the same molecule, in the experiment with CRF1R receptor, the “Emax (% I)” value stood at 5%.

B5: SEQ ID NO 174 (peptide)
peptide: Ac-IVLSLD[dV]PIKLK([AEEA-γGlu-γGlu-C14 diacid])KILLEQEKQKKQREQAETN[Aib]QILAQV-NH2
In the case of B5, the EC50 [nM] (cAMP) in experiment [1] came out at 16.2 nM. Besides, in the experiment with CRF1R receptor, the concentration giving a half-maximal response (EC50) was greater than 0.25 µM and the “Emax (% I)” value worked out at 11%.

B6: SEQ ID NO 3 (peptide)
peptide: Ac-VLSLD[dV]PIKLK([γGlu-C16 diacid])QILLKQERQKKQREQAEKNKQILEQV-NH2
Molecule B6 gave an EC50 [nM] (cAMP) in experiment [1] of 0.16 nM. Also, in the experiment with CRF1R receptor, the “EC50” value was greater than 0.25 µM and the “Emax (% I)” value was 27%.
